{"source": "patent US7456147B2", "about": "“Controlled release of active agents utilizing repeat sequence protein polymers” (Dow Corning, Corporation, priority 2003, dated 2008)", "assay": "Isoelectric point of SELP repeat sequence protein polymers", "format": "physicochemical"}
{"substance": "SELP47K: silk-elastin repeat sequence protein block copolymer, head-[(GAGAGS)2(GVGVP)3GKGVP(GVGP)4(GAGAGS)2]13-tail, 886 amino acids", "values": [{"measurement": "pI of the protein", "result": 10.5}]}
